This note sets out measurements from paper PMC10322840.

Assay [1] deals with Paracentrotus lividus RAF, 6 MYC tags (Paracentrotus lividus). As to the kind of experiment: co-IP; lysates of co-transfected HEK293T cells (200 ul at 0.5 mg/ml); mouse anti-myc 9E10 overnight at 4 °C, Dynabeads Pan mouse IgG 2 h; five washes in 50 mM Tris HCl pH 7.5, 150 mM NaCl, 10% glycerol, 0.2% Triton X100, 1 mM EDTA; blots with rabbit anti-HA and anti-Myc.
For assay [2], the target named is Paracentrotus lividus RAF, 6 MYC tags. Description: co-immunoprecipitation (IP anti-Myc of Pl. RAF, blot quantified). Conditions: parent: 1; read off a plot.

Sequence of Paracentrotus lividus RAF, 6 MYC tags (Paracentrotus lividus) (main, as listed by the source): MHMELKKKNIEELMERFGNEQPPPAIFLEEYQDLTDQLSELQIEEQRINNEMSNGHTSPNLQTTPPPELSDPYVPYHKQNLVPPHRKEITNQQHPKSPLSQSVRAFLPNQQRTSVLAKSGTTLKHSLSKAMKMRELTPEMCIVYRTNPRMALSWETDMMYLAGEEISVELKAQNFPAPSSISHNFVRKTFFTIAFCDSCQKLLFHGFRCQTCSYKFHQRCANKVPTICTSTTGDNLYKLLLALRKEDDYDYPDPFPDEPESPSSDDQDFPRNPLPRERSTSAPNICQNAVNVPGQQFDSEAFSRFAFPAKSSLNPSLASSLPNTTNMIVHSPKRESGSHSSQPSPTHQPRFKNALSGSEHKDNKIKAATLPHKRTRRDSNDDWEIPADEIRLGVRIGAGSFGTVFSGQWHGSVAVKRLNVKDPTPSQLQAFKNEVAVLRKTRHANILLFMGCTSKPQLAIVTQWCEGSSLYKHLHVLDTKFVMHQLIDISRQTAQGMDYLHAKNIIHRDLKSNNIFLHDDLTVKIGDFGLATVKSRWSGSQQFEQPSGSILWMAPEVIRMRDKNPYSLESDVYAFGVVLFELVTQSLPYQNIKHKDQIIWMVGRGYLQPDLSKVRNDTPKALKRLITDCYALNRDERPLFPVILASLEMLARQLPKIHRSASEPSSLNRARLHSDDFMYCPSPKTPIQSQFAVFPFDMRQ

Turning to “Paracentrotus lividus KSR3 S361E (natural protein)”, in assay [1], the fold change of RAF co-immunoprecipitated, against wild-type KSR3 turned out to be 1.5 fold.

On to “Paracentrotus lividus KSR3, wild type, 3HA-tagged S361E; R364H”, for which the ratio to parent (arbitrary units) in assay [2] turned out to be 0.46.
